# Assay results: US10640563B2, “Anti-B7-H3 antibodies and antibody drug conjugates” (AbbVie Inc., priority 2016, dated 2020)
# Where a chain is given by its changes, count along the chain named.
# B1: huAb18v6-CZ (conjugate)
# VH: EVQLVQSGAEVKKPGSSVKVSCKASGYSFTSYTIHWVRQAPGQGLEWMGYINPNSRNTDYAQKFQGRVTLTADKSTSTAYMELSSLRSEDTAVYYCARYSGSTPYWYFDVWGQGTTVTVSS
# VL: EIVLTQSPDFQSVTPKEKVTITCRASSSVSYMNWYQQKPDQSPKLLIKATSNLASGVPSRFSGSGSGTDFTLTINSLEAEDAATYYCQQWSSNPLTFGQGTKLEIK
# B2: huAb18v9-CZ (conjugate)
# VH: B1 VH with M48I, A61N, Q65K, G66D, V68T, K74R
# VL: B1 VL with L45P, L46W, K48Y, G63V, G65V, F70H
# B3: huAb18v7-CZ (conjugate)
# VH: B1 VH
# VL: B1 VL with L45P, L46W, K48Y, G63V, G65V, F70H
# B4: huAb3v6-CZ (conjugate)
# VH: EVQLVQSGAEVKKPGSSVKVSCKASGYTFSSYWMHWVRQAPGQGLEWIGLIHPDSGSTNYNEMFKNRATLTVDRSTSTAYVELSSLRSEDTAVYFCAGGGRLYFDYWGQGTTVTVSS
# VL: DVVMTQSPLSLPVTPGEPASISCRSSQSLVHSNGDTYLRWYLQKPGQSPQLLIYKVSNRFSGVPDRFSGSGSGTDFTLKISRVEAEDVGVYYCSQSTHVPYTFGGGTKVEIK
# B5: chAb11-CZ (conjugate)
# VH: EVKLVESGGGLVQPGGSLRLSCATSGFTFTNYYMSWVRQPPGKALEWLGFIRNKANDYTTEYSASVKGRFTISRDNSQSILYLQMNTLRAEDSATYYCARESPGNPFAYWGQGTLVTVSA
# VL: DIVMTQSPSSLTVTAGEKVTMTCKSSQSLLNSGTQKNFLTWYQQKPGQPPKLLIYWASTRESGVPDRFTGSGSGTDFTLTISSVQAEDLAVYFCQNDYIYPLTFGAGTKLELK
# B6: chAb4-CZ (conjugate)
# VH: QVQLQQPGAELVKPGASVKLSCKASGYSFTSYWMHWVKQRPGQGLEWIGMIHPNSGSNNYNEKFKSKATLTVDKSSNTAYMQLSSLTSEDSAVYYCARRLGLHFDYWGQGTTLTVSS
# VL: DIVMTQSQKFMSTPVGDRVSITCKASQNVGTAVAWYQQKPGQSPKLLIYSASNRYTGVPDRFTGSGSGTDFTLTISNMQSEDLADYFCQQYSSYPYTFGGGTKLEIK
# B7: chAb14-CZ (conjugate)
# VH: EVKLVESGGGLVKPGGSLKLSCAASGFTFSSYGMSWVRQTPEKRLEWVATISGGGTNTYYPDSVEGRFTISRDNAKNFLYLQMSSLRSEDTALYYCARHYGSQTMDYWGQGTSVTVSS
# VL: DIQMTQSPASLSASVGETVTITCRTSGNIHNYLTWYQQKQGKSPQLLVYNAKTLADGVPSRFSGSGSGTQFSLKINSLQPEDFGSYYCQHFWSIMWTFGGGTKLEIK
# B8: chAb2-CZ (conjugate)
# VH: QVQLQQPGAELVKPGASVKLSCKASGYTFTSYWMHWVKQRPGQGLEWIGMIHPDSGTTNYNEKFRSKATLTVDKSSSTAYMQLSSLTSEDSAVYYCAVYYGSTYWYFDVWGTGTTVTVSS
# VL: DVVMTQTPLSLPVSLGDQAYISCRSSQSLVHINGNTYLHWYRQKPGQSPKLLIYKVSNRFSGVPDRFSGSGSGTDFTLKISRVEAEDLGVYFCSQSTHFPFTFGSGTKLEIK
# B9: chAb16-CZ (conjugate)
# VH: EVKLLESGGGLVQPGGSLKLSCAASGFDFSRYWMSWVRQAPGKGLEWIGEINPDSSTINYTPSLKDKFIISRDNAKNTLYLQMSKVRSEDTALYYCARPGFGNYIYAMDYWGQGTSVTVSS
# VL: DIQMTQTTSSLSASLGDRVTINCRASQDISNFLNWYQQKPDGTVKLLIYYTSRLYLGVPSRFSGSGSGTDYSLTISNLEQEDIATYFCQQGNTLPPTFGGGTKLEIK
# B10: chAb6-CZ (conjugate)
# VH: QVQLQQSGAELMKPGASVKISCKATGYTFSRYWIEWVKQRPGHGLEWIGEILPGSGSTNYNEKFKGKATFTADTSSNTAYMQVSSLTSEDSAVHYCARRGYGYVPYALDYWGQGTSVTVSS
# VL: B9 VL with D1E, N22S, F32S, K45N, L56S, P96Y
# B11: chAb2 (conjugate)
# VH: B8 VH
# VL: B8 VL
# modifications: conjugated payload not specified; Synthetic chAb2 VH amino acid sequence; Synthetic chAb2 VL amino acid sequence
# B12: chAb6 (conjugate)
# VH: B10 VH
# VL: B9 VL with D1E, N22S, F32S, K45N, L56S, P96Y
# B13: chAb16 (conjugate)
# VH: B9 VH
# VL: B9 VL
# modifications: conjugated drug; Synthetic chAb16 VH amino acid sequence; Synthetic chAb16 VL amino acid sequence
# System: HCC38 cell line
# Experiment: Cell cytotoxicity of ADCs in HCC38 cell line
# Format: cell-based
# Details: Table 10; CZ conjugates
# Method: The humanization of chAb18 generated 10 variants (described above in Table 9) that retained binding to human and cyno B7-H3 as assessed by FACS (the method of which is described above in Example 6). These variants were further characterized for binding by SPR and were successfully conjugated to the Bcl-xL inhibitor synthon CZ using Method A (described above) and assessed for cell cytotoxicity as described in Example 7. The parental chAb18 from which the variants were derived was also tested as a comparator. All humanized variants had similar binding properties as assessed by biacore, and retained binding activity to cell surface expressed as conjugates with the CZ synthon. The cytotoxicity of all of the variants as CZ synthons were similar to the chAb18 from which they were derived.
# Humanized chAb18 variants were conjugated to the CZ synthon and tested for cytotoxicity in HCC38 cell line.
row,Molecule,IC50
1,B1,0.14 nM
2,B2,0.9 nM
3,B3,0.03 nM

# Same assay, conditions: Table 14; CZ conjugates
row,Molecule,IC50
1,B4,0.13 nM

# System: HCC38 (breast cancer) cells
# Experiment: In vitro cell viability assay (CellTiter-Glo), HCC38
# Format: cell-based, human
# Details: ADC with synthon CZ; HCC38 breast cancer cells; viability after 5 days; read-out: Cytotoxicity (HCC38 cell line IC50nM)
# Method: (§1) Nine anti-B7-H3 chimeric antibodies were conjugated to the Bcl-xL inhibiting (Bcl-xLi) synthon CZ (Example 2.1) using conjugation Method A described below. The resulting ADCs (anti-B7-H3 antibodies conjugated to synthon CZ) were tested for binding to cell surface human B7-H3 by FACS (as described in Example 6) and for cell cytotoxicity in cell lines expressing B7-H3. […] Table 6 provides cell surface binding and cytotoxicity activity of anti-B7-H3 chimera ADCs against breast cancer cell HCC38 expressing human B7-H3.
# The tumor cell lines HCC38 (breast cancer), NCI-H1650 (NSCLC) and NCI-H847 (small cell lung cancer cell line) were obtained from American Type Culture Collection (ATCC). Cells were grown in 96-well culture plates using recommended growth media overnight at a density of 5×10^3 (HCC38) or 20×10^3 (NCI-H847) or 40×10^3 (NCI-H1650) per well. The following day, treatments were added in fresh media to triplicate wells. Cellular viability was determined 5 days later using the CellTiter-Glo Luminescent Cell Viability Assay kit (Promega), as directed in the manufacturer's protocol. Cell viability was assessed as percentage of control untreated cells.
row,Molecule,IC50
1,B5,2.34 nM
2,B6,0.26 nM
3,B7,2.01 nM
4,B8,4.77 nM
5,B9,21.9 nM
6,B10,81 nM

# Same assay, conditions: antibody conjugated to synthon CZ
row,Molecule,cytotoxicity in cells expressing human B7-H3 (in words)
1,B11,weak cytotoxicity
2,B12,weak cytotoxicity
3,B13,weak cytotoxicity

# System: NCI-H146 cells
# Experiment: In vivo xenograft model of small cell lung cancer (NCI-H146)
# Design: species or system mice
# Details: Table 11; 6 mg/kg/IP/QDx1
Molecule,TGD (%),TGImax (%)
B1,45%,86%
B2,35%,83%
B3,42%,87%

# Same assay, conditions: Table 15; 6 mg/kg/IP/QDx1
Molecule,TGD (%),TGImax (%)
B4,88%,91%

# System: not listed separately
# Experiment: Size exclusion chromatography, % aggregate of ADC
# Format: physicochemical
# Details: ADC with synthon CZ, conjugation Method A
# Method: The DAR and percentage aggregation of ADCs synthesized were determined by LC-MS and size exclusion chromatography (SEC), respectively.
# Size exclusion chromatography was performed using a Shodex KW802.5 column in 0.2 M potassium phosphate pH 6.2 with 0.25 mM potassium chloride and 15% IPA at a flow rate of 0.75 ml/min. The peak area absorbance at 280 nm was determined for each of the high molecular weight and monomeric eluents by integration of the area under the curve. The % aggregate fraction of the conjugate sample was determined by dividing the peak area absorbance at 280 nm for the high molecular weight eluent by the sum of the peak area absorbances at […] of the high molecular weight and monomeric eluents multiplied by 100%.
row,Molecule,% agg by SEC
1,B5,5.6%
2,B6,5.7%
3,B7,1.9%
4,B8,5.9%
5,B9,2.3%
6,B10,0.5%

# System: not listed separately
# Experiment: Observation after conjugation to synthon (Method A)
# Format: physicochemical
# Details: after conjugation to Bcl-xLi synthon CZ
# Method: as §1
# A solution of Bond-Breaker™ tris(2-carboxyethyl)phosphine (TCEP) solution (10 mM, 0.017 mL) was added to a solution of antibody (10 mg/mL, 1 mL) preheated to 37° C. The reaction mixture was kept at 37° C. for 1 hour. The solution of reduced antibody was added to a solution of synthon (3.3 mM, 0.160 mL in DMSO) and gently mixed for 30 minutes. The reaction solution was loaded onto a desalting column (PD10, washed with Dulbecco's phosphate-buffered saline [DPBS] 3× before use), followed by DPBS (3 mL). The purified ADC solution was filtered through a 0.2 micron, low protein-binding 13 mm syringe-filter and stored at 4° C.
row,Molecule,Conjugation observation
1,B5,Clear
2,B6,Clear
3,B7,Clear
4,B11,precipitated
5,B8,Precipitates
6,B12,precipitated
7,B9,Precipitates
8,B10,Precipitates
9,B13,precipitated

# System: not listed separately
# Experiment: Aggregation of conjugates by SEC
# Format: physicochemical
# Details: Table 10; CZ conjugates of Ab18 variants
row,Molecule,% agg by SEC
1,B1,3.5%
2,B2,3.8%
3,B3,3.6%

# Same assay, conditions: Table 14; CZ conjugates of Ab3 variants
row,Molecule,% agg by SEC
1,B4,4.9%
